The values that follow are results of earlier work, collected in PMC7116363 (Biomaterials, 2020).

For one data set, the system named is L cells. Conditions: in mice.
Test in data set [1]: not given
The source holds these as a separate data set.

With semaglutide, the half-life (as a rule, the time in which the quantity being followed falls by half) is 165 h.

For the compound `CCC(=O)O` [propionate], the “effective concentration of propionate needed to exert an effect on L cells” value with L cells is reported as 140 mmol/L.

Turning to liraglutide, the “circulating levels after oral co-administration with SNAC” value in data set [1] is reported as “failed to provide circulating levels”.
